Measurements as given in the Human Domainome abundance scans (Beltran et al. 2025).

B1: Zinc finger MYM-type protein 6, residues 427 to 504; numbered along this chain, O95789 (parent)
chain: KLKCQHCNHLFATKPELLFYKGKMFLFCGKNCSDEYKKKNKVVAMCDYCKLQKIIKETVRFSGVDKPFCSEVCKFLSA

Variants of: B1
Assay: abundance fitness (aPCA) (normalised: wild type 0, dead -1); higher = more abundant; growth selection in yeast, the domain comes from the species named
Settings: Homo sapiens

Abundance fitness: each site, then its substitutions
Y36: G -0.183; T -0.169; M -0.093; K -0.661; D -0.453; Q -0.13; V -0.15; R -0.26; H -0.005; A -0.074; C -0.187
F19: S 0.033; I -0.152; M -0.196; Q 0.081; W -0.005; R 0.103; D 0.126; T -0.03; G -0.053; A 0.057; E 0.129; P 0.101; K 0.182
E35: M -0.054; A -0.024; D -0.047; V -0.07; R -0.021; P -0.331; G -0.007; W -0.11; L -0.096; T -0.127; C -0.402; Q -0.082; Y -0.108
M24: C -0.004; E 0.111; T 0.118; W -0.065; D 0; G -0.059; L -0.109; P 0.034; R 0.13; A -0.083; Q 0.101; S 0.012; V -0.172; Y -0.249; I 0.19
K30: S -0.049; M -0.059; F -0.101; C -0.24; P -0.107; L -0.061; H -0.063; E -0.037; Y -0.028; W -0.146; I 0.021; D -0.138; G -0.032; T -0.123; Q -0.096
K23: G -0.067; L -0.067; N -0.001; F -0.15; I -0.129; T -0.036; M -0.041; E 0.062; C -0.172; S -0.058; A -0.045; Q -0.097; H -0.048; V -0.091; W -0.419; D -0.09
L17: N 0.19; S 0.117; C -0.011; F -0.168; W 0.065; T 0.086; M 0.061; A -0.003; E 0.166; D -0.044; Q 0.156; Y -0.081; P 0.024; G -0.042; K 0.102
G29: E -0.131; Q -0.09; W -0.602; D -0.386; A -0.033; P -0.683; L -0.345; C -0.096; H -0.333; K -0.004; T -0.145; R -0.104; S -0.123; V -0.204; M -0.084
C28: Q -1.28; A -1; M -0.752; R -0.877; H -0.608; N -0.367; W -1; S -0.969; D -0.352; G -0.866; K -0.731; L -0.859; E -0.671; F -0.855; V -1.1
K38: L -0.088; W -0.136; D -0.114; G -0.026; E -0.014; S -0.027; V -0.018; A 0.023; P -0.163; Q -0.053; T -0.014; M -0.063
D34: E -0.033; G -0.078; T -0.133; V -0.017; P -0.691; M -0.091; Q -0.034; N -0.527; L -0.14; W -0.156; A -0.037; S -0.056; R -0.068
K37: G -0.027; N 0.097; D -0.057; Q 0.051; C -0.074; V -0.029; R -0.046; A 0.004; L -0.134; W -0.099; M -0.214; S -0.068; P -0.114; T -0.099
